In the supplement of paper PMC7125110:
± gives the standard error. Fewer inactive variants are shown than the library holds.

B1: glmS ribozyme (parent)
chain: AUAAAAGCGCCAGAACUACAGAAAUGUAGUUGACGAGGAGGAGGUUUAUCGAAUUUUCGGCGGAUGCCUCCAAA

Assays:
Conditions in all cases: with glucosamine-6-phosphate
[1] = variants of: B1; experiment: self-cleavage kobs at 640 uM GlcN6P; higher = faster cleavage; RNA array
Outline: (§1)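 Glucosamine-6-phosphate in HEPES/KCl/Mg(OAc)2 buffer, at 40 μM to 10 mM, was flowed over barcoded ribozyme variants transcribed in situ by E. coli RNA polymerase on sequenced MiSeq chips. Tracking was through a hybridised Cy3 probe at 37 °C. kobs, kcat and KM came from exponential decay fits and weighted Michaelis–Menten fits of normalised per-tile medians.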

[2] = variants of: B1; experiment: self-cleavage kobs at 10000 uM GlcN6P; higher = faster cleavage; RNA array
Outline: as §1

[3] = variants of: B1; experiment: self-cleavage kobs at 2500 uM GlcN6P; higher = faster cleavage; RNA array
Outline: as §1

| Variant | self-cleavage kobs at 640 uM GlcN6P [1] | self-cleavage kobs at 10000 uM GlcN6P [2] | self-cleavage kobs at 2500 uM GlcN6P [3] |
| --- | --- | --- | --- |
| U31A U46G A48G | < 1e-05 s⁻¹ | – | – |
| G35A A48C U54A C70A | < 1e-05 s⁻¹ | < 1e-05 s⁻¹ | – |
| U31C A48G G60A | < 1e-05 s⁻¹ | – | < 1e-05 s⁻¹ |
| U31A C58G A64C C68U | 0.00011 ± 3.5e-05 s⁻¹ | – | 8.36e-05 ± 2.2e-05 s⁻¹ |
| U30G U31G U49G U69G | 7.71e-05 ± 2.2e-05 s⁻¹ | – | 6.45e-05 ± 2.7e-05 s⁻¹ |
| U30G A33C G40C U54A A64C | < 1e-05 s⁻¹ | – | < 1e-05 s⁻¹ |
| A33G A52G U65G | < 1e-05 s⁻¹ | – | < 1e-05 s⁻¹ |
| U30C C50G C61G | 0.000327 ± 0.00012 s⁻¹ | – | – |
| U30G G37U U55C C58G | < 1e-05 s⁻¹ | – | – |
| G35C G44C U45C A48G | < 1e-05 s⁻¹ | – | < 1e-05 s⁻¹ |
| A33C G41A A53U | < 1e-05 s⁻¹ | – | – |
| A33G A36C U54C | < 1e-05 s⁻¹ | < 1e-05 s⁻¹ | < 1e-05 s⁻¹ |
| C34G G44A U56C U57C | < 1e-05 s⁻¹ | – | – |
| G35C G38A A64G | < 1e-05 s⁻¹ | – | < 1e-05 s⁻¹ |
| G35C G37U A64G C68U | < 1e-05 s⁻¹ | – | – |
| G32U A33G G38A | < 1e-05 s⁻¹ | – | – |

| Variant | self-cleavage kobs at 640 uM GlcN6P [1] | self-cleavage kobs at 10000 uM GlcN6P [2] | self-cleavage kobs at 2500 uM GlcN6P [3] |
| --- | --- | --- | --- |
| A33U G41A G44A A64U | < 1e-05 s⁻¹ | < 1e-05 s⁻¹ | < 1e-05 s⁻¹ |
| A36G A42C U57C G59U | < 1e-05 s⁻¹ | – | < 1e-05 s⁻¹ |
| A36U U45A C50U U54C U57A | < 1e-05 s⁻¹ | – | < 1e-05 s⁻¹ |
| A33C G35C U56C C67U | < 1e-05 s⁻¹ | – | – |
| U31G G32U A53U A64G | 0.000197 ± 6.1e-05 s⁻¹ | – | – |
| G37A U54C C70U | 0.000626 ± 0.00016 s⁻¹ | – | 0.00117 ± 0.00025 s⁻¹ |
| U30G G32A C68U | 7.55e-05 ± 3.7e-05 s⁻¹ | – | – |
| A36C G40U U54A G63U | < 1e-05 s⁻¹ | < 1e-05 s⁻¹ | < 1e-05 s⁻¹ |
| U31G G44U U46G C58A | < 1e-05 s⁻¹ | – | – |
| A36G G43U | < 1e-05 s⁻¹ | < 1e-05 s⁻¹ | – |
| G32U A42G G66U C68U | < 1e-05 s⁻¹ | – | – |
| G32A C58G C68U | 5.31e-05 ± 2.4e-05 s⁻¹ | – | 8.37e-05 ± 2.3e-05 s⁻¹ |
| C34G C61G G62C | < 1e-05 s⁻¹ | – | – |
| G35A A36C C61G A64G | < 1e-05 s⁻¹ | – | – |
| G32U A52U C58U C61U | < 1e-05 s⁻¹ | – | < 1e-05 s⁻¹ |
| G38C A42G U49G A52G G63C | < 1e-05 s⁻¹ | – | < 1e-05 s⁻¹ |
